Positions count from the first letter of the chain named. Numbers in names are those of the source.
B1: P282ER9P1360_C8 (designed binder)
chain: LPAPKNLVVSRVTEDSARLSWTAPDAAFDSFGILYYEPVDSGEAITLPVPGSERSYDLTGLKPGTEYWVVITGVKGGAPSTPLGTIFTT
notes: FN3 domain (Centyrin); purified as His-tagged protein, tag not in the entry
B2: CD8S365 (designed binder)
chain: B1 chain with E53C
notes: P282ER9P1360_C8 with E54C; the entry holds the mutation
B3: Tencon27 (designed binder)
chain: LPAPKNLVVSRVTEDSARLSWTAPDAAFDSFLIQYQESEKVGEAIVLTVPGSERSYDLTGLKPGTEYTVSIYGVKGGHRSNPLSAIFTT
notes: negative control scaffold; also called Stabilized Tencon
B4: CD8S369 (designed binder)
chain: LPAPKNLVVSRVTEDSARLSWAKRPGAFDSFLIQYQESEKVGEAIVLTVPGSCRSYDLTGLKPGTEYTVSIYGVDVKYDIDSRPISSNPLSAIFTT
notes: P283AR9P1362_D6 with E54C; the entry holds the mutation
B5: P282DR9P1359_F5 (designed binder)
chain: LPAPKNLVVSRVTEDSARLSWTAPDAAFDSFQIAYPEWPPPGEAIVLTVPGSERSYDLTGLKPGTEYFVIIQGVKGGVESWPLSAIFTT
notes: as for B1
B6: CD8S367 (designed binder)
chain: B5 chain with Q32A, P41Q, E53C, I70V, Q72Y, V78S, E79Y, W81A
notes: P282DR9P1359_F7 with E54C; the entry holds the mutation
B7: CD8S368 (designed binder)
chain: B5 chain with E53C
notes: P282DR9P1359_F5 with E54C; the entry holds the mutation
B8: P282DR9P1359_F7 (designed binder)
chain: B5 chain with Q32A, P41Q, I70V, Q72Y, V78S, E79Y, W81A
notes: as for B1
B9: P282DR9P1359_C5 (designed binder)
chain: LPAPKNLVVSRVTEDSARLSWTAPDAAFDSFWITYPEWPDPGGEAIVLTVPGSERSYDLTGLKPGTEYFVVIYGVKGGEIYSPLSAIFTT
notes: as for B1
B10: CD8S366 (designed binder)
chain: B9 chain with E54C
notes: P282DR9P1359_C5 with E54C; the entry holds the mutation
B11: P282DR9P1359_G7 (designed binder)
chain: LPAPKNLVVSRVTEDSARLSWTAPDAAFDSFAITYIEKEHIEDGEAIVLTVPGSERSYDLTGLKPGTEYWVPIWGVKGGANSWPLSAIFTT
notes: as for B1
B12: CD8S370 (designed binder)
chain: B11 chain with E55C
notes: P282DR9P1359_G7 with E54C; the entry holds the mutation

How the values were obtained:
[1] = target: T1, human CD8A-Fc (recombinant human CD8 alpha fused to Fc fragment of human IgG1) (human, UniProt P01732 22-182, limits assumed); assay: SPR, dissociation rate on recombinant CD8 alpha
T1 construct: SPR ligand, captured by goat anti-human Fc; also called hCD8A-Fc; recombinant CD8 alpha; not shown: linker with flag (and polyhistidine) tag and Fc fragment of human IgG1; depends on which of the two constructs was used
T1 sequence (P01732 22-182 limits assumed): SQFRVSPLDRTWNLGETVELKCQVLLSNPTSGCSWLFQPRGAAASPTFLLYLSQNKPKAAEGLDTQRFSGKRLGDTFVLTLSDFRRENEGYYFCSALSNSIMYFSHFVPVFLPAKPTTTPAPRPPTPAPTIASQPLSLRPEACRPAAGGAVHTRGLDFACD

[2] = target: T1, human CD8A-Fc (recombinant human CD8 …); assay: SPR (ProteOn), captured hCD8A-Fc, heterogeneous ligand fit, higher affinity population
Method: (§1) Human CD8A-Fc was then captured at five surface densities ranging from 200 to 1200 response units, leaving the 6th channel as empty channel control for GAH-Fc IgG surface. Binding was measured by flowing five different concentrations of anti-CD8A FN3 domains (1 μM diluted in a 3-fold dilution series) as analytes simultaneously in the horizontal orientation over the captured hCD8A-Fc surfaces, with a sixth analyte channel containing only running buffer PBST. All interactions were measured at 100 uL/min flow rate with association and dissociation times being 4, 30 minutes respectively. […] Data analyses were performed using Bio-Rad ProteOn Manager software (version 3.1.0.6). Raw data were double referenced by subtraction of the interspot (empty chip surface, no protein immobilized or captured) signals to correct the non-specific binding of the FN3 domain to the pre-coated GAH-Fc IgG surface, followed by a double referencing using the buffer blank response (to correct for any baseline drift resulting from ligand dissociation over time). […] Given that the GAH-Fc capture of hCD8A-Fc format is the least disruptive relative to other formats in introducing potential experimental artifacts (such as ligand activity loss and/or artificial eptiopes/heterogeneous ligand population due to amine coupling), it is considered that the results from the GAH-Fc capture experiments reported here represent the most reliable ProteOn SPR data, despite the non-conforming 1:1 Langmuir fits observed in many instances. A heterogeneous ligand model was chosen to fit the data assuming two different ligand species, either due to the heterogeneity in the ligand protein population or due to potential different mechanisms for each FN3 domain binding to the 2 hCD8A monomers in the Fc fusion protein.

[3] = target: T1, human CD8A-Fc (recombinant human CD8 …); assay: SPR (ProteOn), captured hCD8A-Fc, heterogeneous ligand fit, lower affinity population
Method: as §1

[4] = target: T2, human CD8A on primary human CD8+ T cells (human, UniProt P01732 22-235); assay: flow cytometry on human CD8+ T cells
T2 construct: whole, on cells; also called Human T-cells; CD8 alpha
T2 sequence (P01732 22-235): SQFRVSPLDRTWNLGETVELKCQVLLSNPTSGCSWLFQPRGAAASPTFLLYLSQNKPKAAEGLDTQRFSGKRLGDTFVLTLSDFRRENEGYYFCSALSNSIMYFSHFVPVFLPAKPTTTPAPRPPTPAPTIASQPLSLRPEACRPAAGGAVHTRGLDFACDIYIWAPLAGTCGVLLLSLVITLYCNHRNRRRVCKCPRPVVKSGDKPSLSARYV
Method: (§2) A full dose response binding curve was generated for the nineteen selected anti-CD8A FN3 domains. Each candidate was diluted to 20 μM in PBS followed by a 1:3 dilution series to generate either an 11-point or an 18-point dose response curve. Human or cyno CD8+ T cells were incubated with the diluted FN3 domain for 1 hour at 4° C. Cells were washed once with PBS and incubated with an anti-centyrin antibody (PAB25) for 1 hour at 4° C. The cells were washed twice with PBS, followed by incubation with a PE-secondary, anti-CD3-PacB, anti-CD4-APC, and a viability dye. Finally, cells were washed and resuspended in PBS for flow cytometric analysis using a BD Canto Instrument. CD8 T cells were defined as live CD3+CD4− cells. Median fluorescence intensity of the bound Centyrins (PE channel) and % of cells showing positive staining calculated using Cytobank software. Results were graphed using Prism and EC₅₀ values were calculated using the 4 parameter dose response variable slope equation.

[5] = target: T2, human CD8A on primary human CD8+ T cells; assay: MSD-CAT equilibrium cell binding, primary human CD8 T cells
Method: A MesoScale Discovery-Cell Affinity Technology (MSD-CAT) based equilibrium cell-binding assay was performed to determine the affinity of the top six anti-CD8A candidates binding to primary human cytotoxic T cell surface CD8A receptors. Each anti-CD8A FN3 domain at a constant concentration of […] was pre-incubated with 10 different concentrations of primary cytotoxic CD8 T cells (columns 2-11 in a row). Cell viability was checked prior to the binding measurements and a >85% viability was desired for valid analysis. Since these cells were from different donors, in case of donor-to-donor variations, only cells of the same donors were combined together. Each individual anti-CD8A FN3 domain binding was measured in replicates using cells from the same donors. Cells and FN3 domains were incubated overnight at 4° C. on a rotator to reach equilibrium. Following the incubation the cells were spun down along with cell bound anti-CD8A FN3 domains and the unbound (free) anti-CD8A FN3 domains in the supernatants is quantified using MSD assays where biotinylated recombinant hCD8A-Fc protein was captured at 0.6 ug/mL in assay buffer to streptavidin MSD plates overnight ˜16 hours at 4° C. After blocking the plate, supernatant with free anti-CD8A FN3 domains was added to the plate and incubated for 1 hr, then followed by SulfoTag pAb139 (In-house) detection at 1.6 ug/ml. A buffer control without any FN3 domain and hCD8A (plate background binding control) in column 1 and FN3 domain alone control without hCD8A (100% free/unbound) in column 12 were included. Mouse Anti-hCD8A mAb (mIgG1k, BD Biosciences, cat #555364, clone RPA-T8) was included as a positive control. Tencon27 was included in the initial assay validation as a negative control and no significant binding was observed, and therefore, was not included in the later cell binding due to the cell availability. Plates were read immediately on the MSD Sector Imager 6000™ Reader for luminescence levels after adding MSD Read Buffer by diluting 1:4 of stock into H2O.
Raw MSD data were exported and analysed in Prism using a non-linear fit with variable slope function to derive the Bmax and Hillslope values. Only those with converged Bmax values and hillslope within the range of −1.5˜−0.5 (ideal −1.0) will be considered for further analysis.

[6] = target: T3, cynomolgus monkey CD8A on cyno CD8+ T cells (cynomolgus monkey, UniProt P01732 23-235 (human entry)); assay: flow cytometry on cyno CD8+ T cells
T3 construct: also called cyno T-cells; Cyno CD8alpha
T3 sequence (P01732 other isoform, or with tags, fused parts or gaps limits assumed): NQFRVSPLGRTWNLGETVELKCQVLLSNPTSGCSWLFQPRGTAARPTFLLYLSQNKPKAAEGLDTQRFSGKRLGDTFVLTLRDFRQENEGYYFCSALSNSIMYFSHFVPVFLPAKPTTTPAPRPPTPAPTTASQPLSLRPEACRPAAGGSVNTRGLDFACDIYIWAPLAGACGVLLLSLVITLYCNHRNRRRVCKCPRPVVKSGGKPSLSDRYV
Method: as §2

[7] = target: T4, human CD8A on cells (human, UniProt P01732 22-235); assay: MSD-CAT equilibrium cell-binding assay on primary human cytotoxic CD8 T cells
T4 construct: whole, on cells; also called CD8A receptors on primary human cytotoxic T cells
T4 sequence (P01732 22-235): as the sequence (P01732 22-235) above
Method: A MesoScale Discovery-Cell Affinity Technology (MSD-CAT) based equilibrium cell-binding assay was performed to determine the affinity of the top six anti-CD8A candidates binding to primary human cytotoxic T cell surface CD8A receptors. Each anti-CD8A FN3 domain at a constant concentration of […] was pre-incubated with 10 different concentrations of primary cytotoxic CD8 T cells (columns 2-11 in a row). Cell viability was checked prior to the binding measurements and a >85% viability was desired for valid analysis. Since these cells were from different donors, in case of donor-to-donor variations, only cells of the same donors were combined together. Each individual anti-CD8A FN3 domain binding was measured in replicates using cells from the same donors. […] Following the incubation the cells were spun down along with cell bound anti-CD8A FN3 domains and the unbound (free) anti-CD8A FN3 domains in the supernatants is quantified using MSD assays where biotinylated recombinant hCD8A-Fc protein was captured at 0.6 ug/mL in assay buffer to streptavidin MSD plates overnight ˜16 hours at 4° C. […] Plates were read immediately on the MSD Sector Imager 6000™ Reader for luminescence levels after adding MSD Read Buffer by diluting 1:4 of stock into H2O.
Raw MSD data were exported and analysed in Prism using a non-linear fit with variable slope function to derive the Bmax and Hillslope values. […]

[8] = target: T1, human CD8A-Fc (recombinant human CD8 …); assay: SPR (ProteOn), captured hCD8A-Fc, heterogeneous ligand fit, lower affinity population; lower affinity population, heterogeneous ligand fit
Method: Human CD8A-Fc was then captured at five surface densities ranging from 200 to 1200 response units, leaving the 6th channel as empty channel control for GAH-Fc IgG surface. Binding was measured by flowing five different concentrations of anti-CD8A FN3 domains (1 μM diluted in a 3-fold dilution series) as analytes simultaneously in the horizontal orientation over the captured hCD8A-Fc surfaces, with a sixth analyte channel containing only running buffer PBST. All interactions were measured at 100 uL/min flow rate with association and dissociation times being 4, 30 minutes respectively. […] Data analyses were performed using Bio-Rad ProteOn Manager software (version 3.1.0.6). Raw data were double referenced by subtraction of the interspot (empty chip surface, no protein immobilized or captured) signals to correct the non-specific binding of the FN3 domain to the pre-coated GAH-Fc IgG surface, followed by a double referencing using the buffer blank response (to correct for any baseline drift resulting from ligand dissociation over time). […]

Binder | koff [1] [s⁻¹] | Kd [2] [nM] | koff [2] [s⁻¹] | kon [2] [M⁻¹ s⁻¹] | Kd [3] [nM] | koff [3] [s⁻¹] | kon [3] [M⁻¹ s⁻¹] | EC50 [4] [nM] | Kd [5] [nM] | EC50 [6] [nM] | binding result [7] | Kd [8] [nM]
B1 | 0.000179 | 0.2 | 4.71e-05 | 218000 | 4.1 | 9.52e-05 | 30900 | – | – | – | – | –
B2 | – | – | – | – | – | – | – | 556 | 0.167 | 124 | – | –
B3 | – | – | – | – | – | – | – | – | – | – | no binding | –
B4 | – | – | – | – | – | – | – | 124 | 2.81 | 72.3 | – | –
B5 | 5.78e-05 | 0.04 | 1.42e-05 | 380000 | – | 6.6e-05 | 34800 | – | – | – | – | 6.6
B6 | – | – | – | – | – | – | – | 194 | 0.225 | 50.8 | – | –
B7 | – | – | – | – | – | – | – | 155 | 0.459 | 70 | – | –
B8 | 0.000339 | 0.5 | 7.99e-05 | 404000 | 12 | 0.000365 | 40300 | – | – | – | – | –
B9 | 0.000147 | 0.02 | 5.79e-06 | 300000 | 6.5 | 0.000127 | 19200 | – | – | – | – | –
B10 | – | – | – | – | – | – | – | 163 | 0.123 | 69.5 | – | –
B11 | 1.06e-05 | 0.05 | 1.49e-05 | 276000 | 2.1 | 5.51e-05 | 68400 | – | – | – | – | –
B12 | – | – | – | – | – | – | – | 209 | 0.869 | 67.6 | – | –

From US20210032312A1 (Janssen / Centocor, published 2021)
